Assay results taken from patent publication US20160039904A1, “STABILIZED SINGLE HUMAN CD4 DOMAINS AND FUSION PROTEINS” (priority 2013, published 2016).

Assays:
Assay type in all cases: cell-based
HIV-1 JRFL = test: Pseudotyped HIV-1 neutralization (HOS-CD4-CCR5 cells); conditions: Table 2, clade B, R5
Procedure: (§1) To determine the potency and breadth of HIV-1 neutralization by the D1 mutants, viruses pseudotyped with Envs from HIV-1 isolates representing clades A-E and using either CCR5 (R5) or CXCR4 (X4) or both (R5X4) as a coreceptor were included. Pseudoviruses were derived from 293T cells and a neutralization assay was performed in duplicate using HOS-CD4-CCR5 (for all R5 and dual tropic viruses) or HOS-CD4-CXCR4 cell lines as described in Chen et al., Proc. Natl. Acad. Sci. USA, 105: 17121-17126 (2008)). Luminescence was measured 48 hours post-infection and the percentage neutralization was calculated by the following formula: (1—average RLU of inhibitor-containing wells/average RLU or virus-only wells)×100.

HIV-1 Bal = test: as above; conditions: Table 2, clade B, R5
Procedure: as §1

HIV-1 Env JRFL = test: HIV-1 Env-mediated cell-cell fusion; conditions: Table 4, clade B, R5
HIV-1 Env Bal = test: HIV-1 Env-mediated cell-cell fusion; conditions: Table 4, clade B, R5

B1: m36.4: engineered single human antibody domain targeting a CD4i epitope on HIV-1 gp120, SEQ ID NO: 15 (antibody, V domains shown)
VH: QVQLVQSGGGLVQPGGSLRLSCAASAFDFSDYEMSWVREAPGKGLEWIGEINDSGNTIYNPSLKSRVTISRDNSKNTLYLQMNTLRAEDTAIYYCAIYGGNSGGEYWGQGTLVTVSS
Q: For B1, which IC50 (HIV-1 JRFL) is on record?
A: 18 nM

Q: And the IC90 (HIV-1 JRFL)?
A: 106 nM

Q: And the IC50 (HIV-1 Bal)?
A: 16 nM

Q: What about the IC90 (HIV-1 Bal) of the same molecule?
A: 75 nM

Q: What about the IC50 (HIV-1 Env JRFL) of the same molecule?
A: 128 nM

Q: And the IC90 (HIV-1 Env JRFL)?
A: 1080 nM

Q: What about the IC90 (HIV-1 Env Bal) of the same molecule?
A: 235 nM
